The values below come from PMC8517857, “BusR senses bipartite DNA binding motifs by a unique molecular ruler architecture” (Nucleic Acids Research, 2021).

Positions count from the first letter of the chain named.

The target in data set [1] is BusR from Streptococcus agalactiae (full length) (Streptococcus agalactiae). As to the kind of experiment: cryo-EM structure; BusR with c-di-AMP (100 μM) and operator DNA (pAB, 4.5 Å; pAB1, 7.1 Å), 20 mM HEPES pH 6.5, 100 mM NaCl.
Data set [2] has the same target. Put plainly: SAXS; full length BusR in 20 mM HEPES pH 7.5, 200 mM NaCl, 3% glycerol; P12 beamline, PETRA III.
For data set [3] the target is unchanged. Put plainly: SEC-MALS; SEC-coupled right angle light scattering (SEC-RALS), Superdex S200 10/300 increase, 20°C, buffer SEC (30 mM NaPi pH 6.5, 200 mM NaCl, 3% glycerol); BusR alone (apo) and with c-di-AMP. On the technique in general: In gel filtration, larger molecules generally elute earlier.
Data set [4] has as its target RCK_C domain of S. agalactiae BusR (Leu135 to end), no His6-tag (Streptococcus agalactiae). As to the kind of experiment: crystal structure; RCK_C (no His6-tag), 4.5 mg/mL, co-crystallised with 1 mM c-di-AMP, 100 mM sodium-acetate pH 4.6, 3% PEG 4000, 20°C; 1.2 Å.
For data set [5], the target named is selenomethionine substituted full-length BusR from Streptococcus agalactiae (Streptococcus agalactiae). Put plainly: crystal structure; selenomethionine full-length BusR, apo, 7 mg/ml, 150 mM magnesium-acetate, 6% D+trehalose, 20°C; SAD, 2.8 Å.
Another data set addresses T1, BusR (Streptococcus agalactiae, UniProt K0JNC6).
T1 construct: gene BM110_ORF1201; full-length BusR (ITC)
As to the kind of experiment: ITC; […] Å co-crystal structure of the RCK_C domain; cryo-EM of the BusR:c-di-AMP:DNA complex. Type of data set: binding. (In ITC the heat of successive injections is recorded.)

Data set [6] addresses His6-RCK_C domain of S. agalactiae BusR (Leu135 to end) (Streptococcus agalactiae). As to the kind of experiment: crystal structure; apo His6-RCK_C, 6 mg/mL, 0.1 M Bis-Tris pH 6.5, 18% PEG MME 5000, 20°C; 1 Å; dimer by a symmetry related copy.
Data set [7] has the same target. Put plainly: SAXS; isolated RCK_C domain in the absence of c-di-AMP; batch mode or SEC-SAXS, P12 beamline, PETRA III.
The target in data set [8] is T2, BusR wt (Streptococcus agalactiae DSM 16828, UniProt K0JNC6 1-213).
T2 sequence: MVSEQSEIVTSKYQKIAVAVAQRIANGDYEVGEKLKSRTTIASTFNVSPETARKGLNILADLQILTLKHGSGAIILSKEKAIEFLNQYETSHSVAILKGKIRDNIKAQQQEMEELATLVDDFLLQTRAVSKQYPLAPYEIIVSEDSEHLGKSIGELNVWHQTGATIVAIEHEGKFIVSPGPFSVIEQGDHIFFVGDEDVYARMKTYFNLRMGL
As to the kind of experiment: cryo-EM; c-di-AMP; 7.1 A; EMSA: 100 mM KPi pH 6.5, 20 mM KCl, 30 min 20 C, 20 nM DNA, gel at 8 C; SPR: 100 mM NaPi pH 6.5, 20 mM KCl, 200 mM NaCl, 3 mM EDTA, 0.05% P20; BusR concentrations as tetramer. The conditions noted are these: protein: recombinant; tags: His6-MBP removed with PreScission protease; chain copies: 4; blunt. A general note: Mobility shift assays separate free from complexed probe on a gel.

The target of data set [9] is T2, BusR wt. As to the kind of experiment: EMSA; 10 uM c-di-AMP, 100 nM BusR; EMSA: 100 mM KPi pH 6.5, 20 mM KCl, 30 min 20 C, 20 nM DNA, gel at 8 C; SPR: 100 mM NaPi pH 6.5, 20 mM KCl, 200 mM NaCl, 3 mM EDTA, 0.05% P20; BusR concentrations as tetramer. The conditions noted are these: protein: recombinant; tags: His6-MBP removed with PreScission protease; chain copies: 4; label: 5'-6-FAM on strand 1; blunt.

The target of data set [10] is T2, BusR wt. As to the kind of experiment: SPR; 10 uM c-di-AMP; EMSA: 100 mM KPi pH 6.5, 20 mM KCl, 30 min 20 C, 20 nM DNA, gel at 8 C; SPR: 100 mM NaPi pH 6.5, 20 mM KCl, 200 mM NaCl, 3 mM EDTA, 0.05% P20; BusR concentrations as tetramer. The conditions noted are these: protein: recombinant; tags: His6-MBP removed with PreScission protease; chain copies: 4; blunt.
Data set [11] concerns the target T3, BusR W159A (Streptococcus agalactiae DSM 16828, UniProt K0JNC6 1-213, W159A). The data set is described as above. The conditions noted are these: protein: recombinant; tags: His6-MBP removed with PreScission protease; chain copies: 4; blunt.
Data set [12] addresses T3, BusR W159A. Put plainly: SPR; no c-di-AMP; EMSA: 100 mM KPi pH 6.5, 20 mM KCl, 30 min 20 C, 20 nM DNA, gel at 8 C; SPR: 100 mM NaPi pH 6.5, 20 mM KCl, 200 mM NaCl, 3 mM EDTA, 0.05% P20; BusR concentrations as tetramer. The conditions noted are these: protein: recombinant; tags: His6-MBP removed with PreScission protease; chain copies: 4; blunt.

As usually defined, the stoichiometry N is a count of units in the complex or per binding partner. “BusR from Streptococcus agalactiae (full length) (natural protein)”: the stoichiometry N in [1], in [2] and in data set [3] was 4 throughout. The molecule “RCK_C domain of S. agalactiae BusR (Leu135 to end), no His6-tag (domain or fragment)” registered a stoichiometry N in data set [4] of 2. Molecule “selenomethionine substituted full-length BusR from Streptococcus agalactiae (natural protein)” showed a stoichiometry N in data set [5] of 4.

Usually Kd stands for the free concentration of one partner at which half of the binding sites on the other are occupied at equilibrium, for simple one-to-one binding. As to `Nc1ncnc2c1ncn2[C@@H]1O[C@@H]2COP(=O)(O)O[C@H]3[C@@H](O)[C@H](n4cnc5c(N)ncnc54)O[C@@H]3COP(=O)(O)O[C@H]2[C@H]1O` [c-di-AMP], the equilibrium dissociation constant (Kd) at BusR came out at 112 ± 7 nM. Turning to “His6-RCK_C domain of S. agalactiae BusR (Leu135 to end) (domain or fragment)”, the stoichiometry N in [6] and in data set [7] was 2 in each case.

B1: pAB1_EM (dsDNA)
DNA 1: CGGTAAAGTGACGTTAAAGTATCGTAAAAGGGTAGTCACTTTTCGG
DNA 2: CCGAAAAGTGACTACCCTTTTACGATACTTTAACGTCACTTTACCG
Take B1: in the data set with BusR wt [8], the binding result is given as “binds”.

B2: pAB1 -10bp (dsDNA)
DNA 1: ATAAAGTGACGTTAAAAGGGTAGTCACTTTTTTACT
DNA 2: AGTAAAAAAGTGACTACCCTTTTAACGTCACTTTAT
Take B2: the binding result with BusR wt [9] is on record as “no binding”.

B3: pAB1 (SPR) (dsDNA)
DNA 1: ATAAAGTGACGTTAAAGTATCGTAAAAGGGTAGTCACTTTTTTACT
DNA 2: AGTAAAAAAGTGACTACCCTTTTACGATACTTTAACGTCACTTTAT
On to B3, for which the equilibrium dissociation constant (Kd) was 5.1 ± 0.4 nM in the data set with BusR wt [10], 34 ± 8 nM in the data set with BusR W159A [11] and 11 ± 2 nM with BusR W159A [12].

B4: pAB1 1BS-A (dsDNA)
DNA 1: B3 DNA 1 with G8A, A9T, C10G
DNA 2: B3 DNA 2 with G37C, T38A, C39T
Consider B4, for which the binding result with BusR wt [9] was “no binding”.

B5: pAB1 1BS-B (dsDNA)
DNA 1: B3 DNA 1 with G33C, T34A, C35T
DNA 2: B3 DNA 2 with G12A, A13T, C14G
B5: the binding result with BusR wt [9] is “no binding”.

B6: pAB1 0BS (dsDNA)
DNA 1: ATAAAGTATGGTTAAAGTATCGTAAAAGGGTACATACTTTTTTACT
DNA 2: AGTAAAAAAGTATGTACCCTTTTACGATACTTTAACCATACTTTAT
Turning to B6, the binding result with BusR wt [9] is reported as “no binding”.

B7: pAB1 +5bp (dsDNA)
DNA 1: ATAAAGTGACGTTAAAGTATCGTCGATTAAAAGGGTAGTCACTTTTTTACT
DNA 2: AGTAAAAAAGTGACTACCCTTTTAATCGACGATACTTTAACGTCACTTTAT
With B7, the binding result in the data set with BusR wt [9] is recorded as “no binding”.
